From paper PMC3008307 (Virology, 2010)

How the values were obtained:
6-His-cdk3 = 6-His-cdk3 (human, UniProt Q00526 1-305); experiment: pull-down
6-His-cdk8 = 6-His-cdk8 (human, UniProt P49336 1-464); experiment: pull-down
Sequence of 6-His-cdk8 (P49336 whole entry): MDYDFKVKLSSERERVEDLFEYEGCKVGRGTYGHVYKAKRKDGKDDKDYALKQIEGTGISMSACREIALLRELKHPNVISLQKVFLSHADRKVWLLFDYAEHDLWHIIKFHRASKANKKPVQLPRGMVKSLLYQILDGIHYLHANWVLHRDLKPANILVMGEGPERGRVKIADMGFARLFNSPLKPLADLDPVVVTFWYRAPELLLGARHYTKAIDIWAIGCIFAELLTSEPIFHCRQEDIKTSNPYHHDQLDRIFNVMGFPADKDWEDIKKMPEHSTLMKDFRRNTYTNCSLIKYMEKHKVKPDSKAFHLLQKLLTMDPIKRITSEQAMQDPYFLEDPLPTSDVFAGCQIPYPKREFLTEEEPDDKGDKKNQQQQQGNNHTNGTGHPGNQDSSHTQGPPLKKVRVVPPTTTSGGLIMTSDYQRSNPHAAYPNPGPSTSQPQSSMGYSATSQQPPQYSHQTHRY

Sequence of 6-His-cdk3 (Q00526 whole entry): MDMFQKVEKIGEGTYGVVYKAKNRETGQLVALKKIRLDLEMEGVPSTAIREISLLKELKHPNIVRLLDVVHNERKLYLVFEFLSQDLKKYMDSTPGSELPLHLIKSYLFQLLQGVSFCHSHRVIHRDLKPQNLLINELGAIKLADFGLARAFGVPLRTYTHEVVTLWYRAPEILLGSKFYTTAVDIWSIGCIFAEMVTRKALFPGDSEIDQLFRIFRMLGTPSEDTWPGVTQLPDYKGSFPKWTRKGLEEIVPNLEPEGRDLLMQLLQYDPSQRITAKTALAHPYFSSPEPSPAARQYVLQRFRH

Binder	binding result (6-His-cdk3)	binding result (6-His-cdk8)
GST-cyclin C (natural protein, human, UniProt P24863 1-283, looked up) MAGNFWQSSHYLQWILDKQDLLKERQKDLKFLSEEEYWKLQIFFTNVIQALGEHLKLRQQVIATATVYFKRFYARYSLKSIDPVLMAPTCVFLASKVEEFGVVSNTRLIAAATSVLKTRFSYAFPKEFPYRMNHILECEFYLLELMDCCLIVYHPYRPLLQYVQDMGQEDMLLPLAWRIVNDTYRTDLCLLYPPFMIALACLHVACVVQQKDARQWFAELSVDMEKILEIIRVILKLYEQWKNFDERKEMATILSKMPKPKPPPNSEGEQGPNGSQNSSYSQS	binds	binds
GST-rv-cyclin (natural protein) MDIPVEFLTAQEPLSYGHIPPVYWKELLNWIDRILTHNQATPNTWEATHMVLLKLHGTLSFSNPAQLPLVAAACLQIAAKHTEAHSRLADPDYITMLGDGVYTKPSLLLTETMALFIVGGHVGAYTLAACDWLLGSLPFSQAENDLLHPYMYHYIKLSYRHRTPDYHSSPALRAAVVIAAAVKGADLLEMNMLFIMMYHLTHISTASLSLGLTHFTAALQRQINLDFAEAEQREAAERRALLEREREQQLQEARERLDDVMAVLEAEVAITITTATEGTDAEDTSEVDVINVVDPIG	binds	binds
